# The RNAGym collection of RNA variant scans (doi:10.1073/pnas.2313332121)
# Variants at the floor of the assay were thinned out.
# B1: TPR 5TU (parent)
# chain: GGAUCUUCUCGAUCUAACAAAAAAGACAAAUCUGCCACAAAGCUUGAGAGCAUCUUCGGAUGCAGAGGCGGCAGCCUUCGGUGGCGCGAUAGCGCCAACGUUCUCAACUAUGACACGCAAAACGCGUGCUCCGUUGAAUGGAGUUUAUCAUG
# Variants of: B1
# Assay: polymerase ribozyme fitness, log enrichment relative to wild type (log ratio); higher = more active; in vitro selection for triplet polymerase activity
# In short: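 PCR was used to build mutant libraries for each subunit of a heterodimeric triplet polymerase ribozyme, which were then transcribed. A single in vitro selection round, in triplicate, used a frozen incubation at −7 °C and recovered extended constructs by gel excision, streptavidin beads and RT-PCR. Fitness is the logarithm of genotype enrichment relative to wild-type enrichment, averaged over replicates with inverse-variance weights. The logarithm is base 2, and after Illumina sequencing only genotypes with ≥10 input reads and ≥1 read per output were kept.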
row,Variant,polymerase ribozyme fitness (log ratio)
1,C85A C99G,-3.49
2,G59C A89C C93U G117C A120G U135A,-3.35
3,U9A A22G G34A A106G C116U A120U,≤ -4.2
4,A20U A73G C79A C96G,≤ -4.2
5,C96A G124A,-0.328
6,A41G A49C G68U C76U C93U A97U,≤ -4.2
7,U6G G50C,-3.07
8,C54A G92U U135G,-4.08
9,C27U G70A C87A,≤ -4.2
10,C43A C63U U90A,≤ -4.2
11,A37G U55G C85G,-3.49
12,A24C G68U C75G C76G A110G A121U,≤ -4.2
13,A3G C63U A73G G86U U135A,-3.75
14,A28U U61C G68A G86A A89U G117C,≤ -4.2
15,A39C A91U G92A U139G,≤ -4.2
16,A37C A64U A66G C85A A107G,≤ -4.2
17,A60U U61A A142C,-3.49
18,A37C C95U G141C,-1.7
19,A41U G83C G126A,-2.3
20,G11A C85G G94U,-0.903
21,C87U C108U,-3.61
22,A20G G34A C118G A121C,-3.83
23,C54G C79U G94C C96U A150G,≤ -4.2
24,C8A A52C C87A,≤ -4.2

row,Variant,polymerase ribozyme fitness (log ratio)
1,G88C A97U C103A G128C U134C U146C,≤ -4.2
2,A40C C75G U82G C93G A138G G140C,≤ -4.2
3,U55G C93U,-1.83
4,A16C A26U,-2.62
5,C75G C93U,-3.74
6,G25C G68C C93A C99G C114U,≤ -4.2
7,G68U C75A G81U G83A C95U C96U C116U,-1.31
8,A73G G128C,-3.67
9,G46A C54G C95U,-2.17
10,C131G G136U G141U G143U,≤ -4.2
11,A16C C57U C129U G143A,-1.91
12,C38A U148A,-4.04
13,C54G U82A,-1.98
14,C38U G50A A73U G126U,-3.21
15,A21C U55A C96U,-0.915
16,U56A C57G A66U G84A A98G C103A C125A,≤ -4.2
17,G74A A106C A142C,≤ -4.2
18,C85A A98U C108A U134G,≤ -4.2
19,U15C A19G C69G C76A C79G G84U C95A A110U,≤ -4.2
20,C10U U55A C72U,-3.95
21,A21G G68C C85A G92A G128U,≤ -4.2
22,A26U C36G U55A G58C C105U,≤ -4.2
23,C54U C57U G83C,-1.34
24,C54G C85A,-3.85

row,Variant,polymerase ribozyme fitness (log ratio)
1,C51A G117U,-1.02
2,A40U A91G,-3.33
3,A12U C93A,-1.26
4,G25C A97G,-2.53
5,C18U C57U G86A,-1.67
6,A17G C35U C36U C95U,≤ -4.2
7,G81C A89U C96G,-0.784
8,U56A G80U G84U U102G G124U,≤ -4.2
9,A20U A39C G48A G94A,≤ -4.2
10,A47U C51U A52C U53G U61A A64U C76U G83U U146C,≤ -4.2
11,A28C U82A,≤ -4.2
12,U33G G34U,≤ -4.2
13,A52U U53A,-1.23
14,A12U C54A C95U,-1.84
15,A40G G70C C85A,≤ -4.2
16,U13C U104G,-1.57
17,A20U G71A C95A,≤ -4.2
18,U56A A91G U148C,-3.72
19,C5G G50U C57U G92C A120G,-2.75
20,C57U A66C G92U C93A,≤ -4.2
21,A3G C87U,-0.743
22,A12U A20U A21C C87G A142G,≤ -4.2
23,A16C U31C A37C A40C C95G G100A C114U,≤ -4.2
24,A41C U55A G58C A98U,-0.108

row,Variant,polymerase ribozyme fitness (log ratio)
1,G59A G71A G117C,-3.56
2,A23G G81A A121U G141U,-2.76
3,C27U G58A A60G G84U,-1.42
4,C76G G84U C116A,≤ -4.2
5,U55G G84U,-0.827
6,U55G C85U C131U U134C,1.73
7,C93U C118U,-1.84
8,U44A C75U C76G U77G G92U A115U G140A G152C,≤ -4.2
9,C5G A52G G83C C93U,-3.55
10,C10G C38A G88A A97U,≤ -4.2
11,A24U U53A U55A G68C C76A C85G,≤ -4.2
12,U53A A115U,-2.87
13,A41C C54A A91C U104G U127A G140U U151C,≤ -4.2
14,A20C U104G A107C U145G,≤ -4.2
15,G48A G59C C63U G86C,-3.98
16,C10U C51G U53A U90G,≤ -4.2
17,A49G C93A U134A U146G,≤ -4.2
18,C95U A147U,0.673
19,A66G C93U C108U C132G C149A,≤ -4.2
20,U56A G117A,-0.176
21,U55C U109G,-0.246
22,C57G C85U G117U C118G,-1.51
23,A40U A89C C114U,-2.95
24,A122U G141C,0.115

row,Variant,polymerase ribozyme fitness (log ratio)
1,A12G C54G C116U,-0.574
2,C35U G48A U78C C96G G117C,≤ -4.2
3,A20U G50A A89U A91G,≤ -4.2
4,A19C G58C C87A C95A A98G,≤ -4.2
5,A16C C18G A22G C27U A52G U61A A73G C85A U127C U139C,≤ -4.2
6,C27U U31C A52C U78C U101A C125G,≤ -4.2
7,A21C G62C,-0.587
8,U45A U77A C87U U90G G92C G126A A138G,≤ -4.2
9,A3G A113G C118G,-3.65
10,A26U A49U G59U,≤ -4.2
11,C27A C35A G84U C103G,≤ -4.2
12,C8A A39G G84U A106U C149G,≤ -4.2
13,A52C C57U C63A C72G U77A C85A A107U A122U G136C U148A,≤ -4.2
14,U55A A73G A89G G136A,-0.934
15,C43G G50C G62A G84A G92C,≤ -4.2
16,A52G U55A A91C A97U G112A A150U,≤ -4.2
17,G46U U82C C95U,-0.628
18,C38A C95A C118A,-1.55
19,A21U C32G U55A G83U,≤ -4.2
20,G70C G92U,-3.01
21,A16U G74A G84U U90C C118U A121U,≤ -4.2
22,C36U A41G G83C G84U C116U,-4.09
23,G62A A66G G86U A121G U127C,≤ -4.2
24,G50U U102G,-2.92

row,Variant,polymerase ribozyme fitness (log ratio)
1,C54G G80U C103A,≤ -4.2
2,A113C C118A,≤ -4.2
3,C54U U55G U82G,-1.38
4,C43A G48U A60G G83C C87U G126U A138C,≤ -4.2
5,G11A A19U U56G U82C G84U C95U,≤ -4.2
6,C8U C123G,-3.42
7,A23U C51U C93U G100U C123G,≤ -4.2
8,A3C C14U A16G G59A C87A,≤ -4.2
9,G71U G74C A120C,≤ -4.2
10,U55A G59U A60G G94A,-1.02
11,C43A U53G U56G A97U A137G,≤ -4.2
12,A29U A39G C57G A66C C85G A91U,≤ -4.2
13,C14G A17U A37U A52G C57U A91U U127A U134A A150U,≤ -4.2
14,U53A U55A C57A C85G A122G,-2.51
15,C14G A19U G34U C87G G100A A142C,≤ -4.2
16,C69A C75U A106G A120G,-2.33
17,G34C C87G U90G G92A U148A,≤ -4.2
18,U55A G59C G94U A107C,≤ -4.2
19,C35U G83A,-0.173
20,A12U A26C C35A U55C G59C C76A C93A U111C A138G U144A,≤ -4.2
21,C114G G133A,≤ -4.2
22,U9G A47C C57A A66C C87A A89U A120U A121U C123A C125U U144A,≤ -4.2
23,C5A U13G C27A G34A G42C C96A,≤ -4.2
24,A41G G59A U61A,-0.462

row,Variant,polymerase ribozyme fitness (log ratio)
1,A37G A91C A138C G140U,≤ -4.2
2,C96U G126A,0.845
3,U9A A23C C35G C75U G92U C95G U127A,≤ -4.2
4,A28C C93U,-4.16
5,U6A A22C C75U G84A A97G C108G A113C C116A U135G,≤ -4.2
6,A30C A37C A49C A52C C57G G83A A115U G143C,≤ -4.2
7,A49G A52C C95U C96A C99A,≤ -4.2
8,C14U G50U,-1.15
9,A37G C38A G48U,-2.25
10,A29G C76G C93U,≤ -4.2
11,C8G U13C A17U A29U C38U U44A G84U C87G G92A G140A,≤ -4.2
12,A26G U145A,-3.59
13,U56A C57A G84A,-0.56
14,G34U C95G A115G C116U G140C U151A,-4.19
15,C8G C14U A29U G50U C54U C75G A119U,≤ -4.2
16,G67A C114U U134G A150C,≤ -4.2
17,A60G C116U,0.141
18,G46A A52G C85A,-2.54
19,A3C U6G G46C C75A C79A G86A C103G G126U,≤ -4.2
20,A49G U55A C79U G92U C95A G140A,≤ -4.2
21,U61G C87U C125G,≤ -4.2
22,C14A A37U A52G G83A G84A A115U,≤ -4.2
23,A40U G88C U101G,≤ -4.2
